Values of other authors, collected in PMC8690575.

Molecular target: Rhodopsin (Mus musculus) (UniProt P15409)

Substance: Arrestin-1 (from UniProt P20443)
- Kd: 150 µM
